Here are results for eight molecules from patent US20200054723A1 (ALLAKOS, published 2020).

Residue numbers refer to the chain shown, from its start. “And” between values parts separate entries of the source, which are not always exact repeats. Equal entries are not always repeated.

For test [1], the target named is T1, Siglec-8-Fc tagged protein (human Siglec-8 extracellular domain fused to an immunoglobulin Fc region) (human).
T1 construct: also called Siglec-8 Fc fusion protein
The test is described as follows: BLI (Octet Red 384), Siglec-8-Fc on anti-human capture sensors, Fab in solution. On the procedure:
Antibody affinity determination was also carried out by bio-layer interferometry (ForteBio). Binding of mouse, chimeric and humanized anti-Siglec-8 antibody Fab fragments to human Siglec-8 protein was measured on a ForteBio Octet Red 384. The assay was conducted at 25° C., at an RPM of 1000 in assay buffer. […] Fab fragments (antibodies were digested with Thermo-Pierce immobilized papain per manufacturer's specifications) were diluted in assay buffer from 50 nM to 1.56 nM with 2× dilutions. The Siglec-8-Fc tagged protein was immobilized on Anti-Human-Capture sensors at 100 nM in assay buffer for 3 min to a change in nm of approximately 1.2. Two-minute associations were conducted, followed by 10-minute dissociations. Results were blanked with an empty reference AHC sensor, and analyzed in ForteBio analysis software with 1:1 global fit parameters.
A general note: BLI is a label-free optical method that tracks binding on a fibre tip over time.

Test [2] concerns the target human Siglec-8 on human cells (eosinophils, mast cells) (human, UniProt Q9NYZ4 17-499). The test is described as follows: cell-based or functional assay.
The target in test [3] is T2, recombinant human Siglec-8 extracellular domain (ECD) (human, UniProt Q9NYZ4 17-363).
T2 construct: extracellular domain; also called Siglec-8 ECD; full Siglec-8 ECD
T2 sequence (Q9NYZ4 17-363): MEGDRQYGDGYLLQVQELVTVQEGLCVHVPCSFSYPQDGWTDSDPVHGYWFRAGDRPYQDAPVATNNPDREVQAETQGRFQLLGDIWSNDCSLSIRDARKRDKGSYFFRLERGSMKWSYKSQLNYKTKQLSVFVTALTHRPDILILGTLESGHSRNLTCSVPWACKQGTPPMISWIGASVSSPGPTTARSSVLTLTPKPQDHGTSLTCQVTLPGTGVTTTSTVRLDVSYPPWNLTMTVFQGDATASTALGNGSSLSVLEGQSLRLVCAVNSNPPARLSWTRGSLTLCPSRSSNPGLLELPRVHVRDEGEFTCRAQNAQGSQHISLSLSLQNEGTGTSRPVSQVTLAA
The test is described as follows: ELISA, coated Siglec-8 ECD. For orientation: An ELISA detects its analyte on a solid surface through an enzyme-linked reagent.

Test [4] has as its target T3, Dimeric Siglec-8 (human Siglec-8 ECD protein) (human, UniProt Q9NYZ4 17-363).
T3 construct: extracellular domain; Analyte of the Biacore avidity assay
The test can be described thus: SPR (Biacore), antibody captured, dimeric Siglec-8 as analyte, 1:1 global fit (avidity). On the procedure: Antibody avidity determination was carried out by SPR analysis using a Biacore T200. Binding of human Siglec-8 ECD protein to mouse, chimeric and humanized anti-Siglec-8 antibodies was measured on a […]. The capture antibodies (goat-anti-human-Fc and goat-anti-mouse-Fc from Jackson Immunoresearch) were immobilized on a CM5 chip according to manufacturer's protocol (Biacore, GE). Flow-cell 1, 2 and 3 were immobilized with anti-human, and flow cell 4 with anti-mouse antibodies. The assay was conducted at 25° C., at a flow rate of […]. Assay buffer was 20 mM Tris-HCl pH 8.3, 150 mM Sodium Chloride, 0.05% Polysorbate 20, 10% glycerol, 0.1% BSA, made in ultrapure water. Dimeric Siglec-8 (impurities of monomeric and oligomeric Siglec-8 were removed by size-exclusion chromatography) was diluted in assay buffer from 15 nM to […] with 2× dilutions. Antibodies were captured to a change of approximately 120 RU. Six-minute high performance injections were conducted, followed by 120-minute dissociations. Flow cells were regenerated with 50 mM glycine pH 1.5. Results were double blanked with an empty reference cell and multiple assay buffer injections, and analyzed with 1:1 global fit parameters.

T1 sequence (chain, as listed by the source limits assumed): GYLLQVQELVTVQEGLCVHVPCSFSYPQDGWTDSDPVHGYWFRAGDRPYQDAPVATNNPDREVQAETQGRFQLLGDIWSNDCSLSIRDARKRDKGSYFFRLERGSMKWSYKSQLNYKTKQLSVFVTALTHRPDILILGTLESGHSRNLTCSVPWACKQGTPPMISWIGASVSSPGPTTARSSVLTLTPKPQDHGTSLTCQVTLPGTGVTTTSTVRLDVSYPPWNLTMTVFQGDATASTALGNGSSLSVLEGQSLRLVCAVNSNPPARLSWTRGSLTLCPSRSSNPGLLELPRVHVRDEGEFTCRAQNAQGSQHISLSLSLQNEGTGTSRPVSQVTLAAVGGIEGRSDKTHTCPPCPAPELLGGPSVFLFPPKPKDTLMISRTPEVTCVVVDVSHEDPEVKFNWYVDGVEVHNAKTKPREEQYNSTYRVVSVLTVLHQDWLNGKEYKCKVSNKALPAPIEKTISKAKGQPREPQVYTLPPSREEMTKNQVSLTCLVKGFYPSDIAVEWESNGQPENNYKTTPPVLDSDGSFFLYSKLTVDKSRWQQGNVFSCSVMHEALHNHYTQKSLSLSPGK
Sequence of human Siglec-8 on human cells (eosinophils, mast cells) (Q9NYZ4 17-499): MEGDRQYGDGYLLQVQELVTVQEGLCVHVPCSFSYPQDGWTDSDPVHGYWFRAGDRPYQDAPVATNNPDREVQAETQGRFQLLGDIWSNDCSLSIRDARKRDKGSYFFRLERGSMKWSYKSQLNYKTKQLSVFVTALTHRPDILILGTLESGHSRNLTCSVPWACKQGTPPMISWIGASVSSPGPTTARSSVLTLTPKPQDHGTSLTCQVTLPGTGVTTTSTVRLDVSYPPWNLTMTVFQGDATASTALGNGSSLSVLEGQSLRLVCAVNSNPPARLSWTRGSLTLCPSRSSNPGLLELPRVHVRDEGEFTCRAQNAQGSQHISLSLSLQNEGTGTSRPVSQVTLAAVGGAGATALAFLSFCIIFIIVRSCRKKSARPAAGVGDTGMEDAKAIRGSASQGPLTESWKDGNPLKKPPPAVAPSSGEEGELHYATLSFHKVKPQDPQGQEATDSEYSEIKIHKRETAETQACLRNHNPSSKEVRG
T3 sequence (Q9NYZ4 17-363): as the sequence (Q9NYZ4 17-363) above

B1: mouse 2E2 Fab fragment (Fab)
VH: QVQLKESGPGLVAPSQSLSITCTVSGFSLTIYGAHWVRQPPGKGLEWLGVIWAGGSTNYNSALMSRLSISKDNSKSQVFLKINSLQTDDTALYYCARDGSSPYYYSMEYWGQGTSVTVSS
light: QIILTQSPAIMSASPGEKVSITCSATSSVSYMHWFQQKPGTSPKLWIYSTSNLASGVPVRFSGSGSGTSYSLTISRMEAEDAATYYCQQRSSYPFTFGSGTKLEIKADAAPTVSIFPPSSEQLTSGGASVVCFLNNFYPKDINVKWKIDGSERQNGVLNSWTDQDSKDSTYSMSSTLTLTKDEYERHNSYTCEATHKTSTSPIVKSFNRNEC
notes: Fab made by papain digestion of the murine IgG1; also called murine 2E2 Fab
On to B1, for which, in test [1], the Kd was 0.536 nM; the off-rate (koff) (in general, a measure of how fast the partners let go of each other) stood at 0.000612 s⁻¹; the on-rate (kon) (as a rule, the second-order rate constant of association) was 1.14e+06 M⁻¹ s⁻¹.

B2: HEKA IgG4 antibody (antibody)
heavy: not shown
light: EIVLTQSPATLSLSPGERATLSCSATSSVSYMHWFQQKPGQAPRLLIYSTSNLASGIPARFSGSGSGTDFTLTISSLEPEDFAVYYCQQRSSYPFTFGPGTKLDIKRTVAAPSVFIFPPSDEQLKSGTASVVCLLNNFYPREAKVQWKVDNALQSGNSQESVTEQDSKDSTYSLSSTLTLSKADYEKHKVYACEVTHQGLSSPVTKSFNRGEC
As for B2, the “Mean EC50 (ng/ml) for eosinophil depletion” value (from here on “Mean EC50 (ng/ml)”) in test [2] was 3.9 ng/mL.

B3: HEKA Fab fragment (Fab)
VH: EVQLVESGGGLVQPGGSLRLSCAASGFSLTIYGAHWVRQAPGKGLEWVGVIWAGGSTNYNSALMSRFTISKDNSKNTVYLQMNSLRAEDTAVYYCARDGSSPYYYSMEYWGQGTTVTVSS
light: B2 light
notes: Fab made by papain digestion
With B3, in test [1], the Kd was found to be 0.464 nM, the off-rate (koff) was 0.000482 s⁻¹ and the kon is 1.04e+06 M⁻¹ s⁻¹.

B4: HEKF Fab fragment (Fab)
VH: B3 VH
light: B2 light with F70Y
notes: Fab made by papain digestion
For B4, in test [1], the Kd came out at 0.592 nM, the off-rate constant (koff) is 0.000545 s⁻¹ and the kon was determined as 920000 M⁻¹ s⁻¹.

B5: HEKAmut IgG1 antibody (antibody, V domains shown)
VH: B3 VH
VL: EIVLTQSPATLSLSPGERATLSCSATSSVSYMHWFQQKPGQAPRLLIYSTSNLASGIPARFSGSGSGTDFTLTISSLEPEDFAVYYCQQRSSYPYTFGPGTKLDIK
Turning to B5, in test [2], the “Mean EC50 (ng/ml)” value amounted to 43.3 ng/mL.

B6: HEKFmut (antibody, human IgG1, V domains shown)
VH: B3 VH
VL: B5 VL with F70Y
notes: human IgG1/kappa; also called HEKFmut IgG1
For B6, the “Mean EC50 (ng/ml)” value in test [2] came to 6.9 ng/mL. Further, in test [3], the EC50 (as a rule, the concentration that produces a half-maximal response) is 0.072 nM.

B7: chimeric 2E2 antibody (antibody, human IgG1, kappa)
heavy: not shown
light: QIILTQSPAIMSASPGEKVSITCSATSSVSYMHWFQQKPGTSPKLWIYSTSNLASGVPVRFSGSGSGTSYSLTISRMEAEDAATYYCQQRSSYPFTFGSGTKLEIKRTVAAPSVFIFPPSDEQLKSGTASVVCLLNNFYPREAKVQWKVDNALQSGNSQESVTEQDSKDSTYSLSSTLTLSKADYEKHKVYACEVTHQGLSSPVTKSFNRGEC
notes: human IgG1/kappa; also called ch2E2; ch2E2 purified
For the molecule B7, in test [4], the Kd is 0.016 nM, the off-rate (koff) was determined as 1.32e-05 s⁻¹ and the kon came out at 851000 M⁻¹ s⁻¹. Also, the concentration giving a half-maximal response (EC50) in test [3] is 0.062 nM and 0.044 nM and 0.043 nM.

B8: chimeric 2E2 Fab fragment (Fab)
VH: B1 VH
light: B7 light
notes: Fab made by papain digestion of the human IgG1 chimeric antibody
In test [1], B8 gave a Kd of 0.585 nM, an off-rate constant (koff) of 0.000556 s⁻¹ and a kon of 951000 M⁻¹ s⁻¹.
